Data set [1] has as its target reconstituted tissue factor (Innovin, Dade) and membrane (UniProt P13726).
In data set [2] the target is T1, reconstituted tissue factor (Innovin, Dade) and membrane, P13726.
T1 chain: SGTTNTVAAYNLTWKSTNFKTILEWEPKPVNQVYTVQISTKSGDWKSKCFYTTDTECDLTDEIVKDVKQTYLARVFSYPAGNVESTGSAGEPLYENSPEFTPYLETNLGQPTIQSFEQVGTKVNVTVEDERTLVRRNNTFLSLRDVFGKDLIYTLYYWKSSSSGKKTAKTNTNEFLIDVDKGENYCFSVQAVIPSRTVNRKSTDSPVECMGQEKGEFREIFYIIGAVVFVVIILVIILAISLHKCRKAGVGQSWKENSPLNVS

Consider Factor VII mutant Q11E33I34F35, for which, in data set [1], the “activity (competitive assay described in Example 6)” value is “displayed similar activity as the Q11E33F34I35 mutant”.

B1: factor VII F5K (protein)
chain: ANAKLEELRPGSLERECKEEQCSFEEAREIFKDAERTKLFWISYSDGDQCASSPCQNGGSCKDQLQSYICFCLPAFEGRNCETHKDDQLICVNENGGCEQYCSDHTGTKRSCRCHEGYSLLADGVSCTPTVEYPCGKIPILEKRNASKPQGRIVGGKVCPKGECPWQVLLLVNGAQLCGGTLINTIWVVSAAHCFDKIKNWRNLIAVLGEHDLSEHDGDEQSRRVAQVIIPSTYVPGTTNHDIALLRLHQPVVLTDHVVPLCLPERTFSERTLAFVRFSLVSGWGQLLDRGATALELMVLNVPRLMTQDCLQQSRKVGDSPNITEYMFCAGYSDGSKDSCKGDSGGPHATHYRGTWYLTGIVSWGQGCATVGHFGVYTRVSQYIEWLQKLMRSEPRPGVLLRAPFP
As for B1, the “activity in the competitive assay described in Example 6” value in data set [2] is listed as “a protein with 33% of the activity of wild type factor VII”.

B2: factor VII mutant Q11E33D36 (protein)
chain: ANAFLEELRQGSLERECKEEQCSFEEAREIFEDADRTKLFWISYSDGDQCASSPCQNGGSCKDQLQSYICFCLPAFEGRNCETHKDDQLICVNENGGCEQYCSDHTGTKRSCRCHEGYSLLADGVSCTPTVEYPCGKIPILEKRNASKPQGRIVGGKVCPKGECPWQVLLLVNGAQLCGGTLINTIWVVSAAHCFDKIKNWRNLIAVLGEHDLSEHDGDEQSRRVAQVIIPSTYVPGTTNHDIALLRLHQPVVLTDHVVPLCLPERTFSERTLAFVRFSLVSGWGQLLDRGATALELMVLNVPRLMTQDCLQQSRKVGDSPNITEYMFCAGYSDGSKDSCKGDSGGPHATHYRGTWYLTGIVSWGQGCATVGHFGVYTRVSQYIEWLQKLMRSEPRPGVLLRAPFP
As for B2, the “activity in the competitive assay described in Example 6” value in data set [2] is recorded as “had 70% the activity of the Q11E33 mutant”.

B3: Factor VII mutant Q11E33F34I35 (protein)
chain: ANAFLEELRQGSLERECKEEQCSFEEAREIFEFIERTKLFWISYSDGDQCASSPCQNGGSCKDQLQSYICFCLPAFEGRNCETHKDDQLICVNENGGCEQYCSDHTGTKRSCRCHEGYSLLADGVSCTPTVEYPCGKIPILEKRNASKPQGRIVGGKVCPKGECPWQVLLLVNGAQLCGGTLINTIWVVSAAHCFDKIKNWRNLIAVLGEHDLSEHDGDEQSRRVAQVIIPSTYVPGTTNHDIALLRLHQPVVLTDHVVPLCLPERTFSERTLAFVRFSLVSGWGQLLDRGATALELMVLNVPRLMTQDCLQQSRKVGDSPNITEYMFCAGYSDGSKDSCKGDSGGPHATHYRGTWYLTGIVSWGQGCATVGHFGVYTRVSQYIEWLQKLMRSEPRPGVLLRAPFP
On to B3, for which the “activity in the competitive assay described in Example 6” value in data set [2] is listed as “The activity of the resulting mutant Q11E33F34135 was 60% that of the Q11E33F34 mutant”.

For the origin of these results see US20060264616.
